Among the data in patent US20210269480A1 (published 2021) are Ki values, retold here.

*1 amine or outer side, *2 acyl side, *3 side chain or, on linkers, in order; H or OH if unused. Bridges are numbered along the chain shown (N, C = ends). Where no end group is shown, it is not given here. [ ]: non-standard residue; d: D form. 124TriAz = 3-(1,2,4-triazol-1-yl)-alanine, O=C([C@H](Cn1cncn1)N[*:1])[*:2]; TATA = O=C(CC[*:1])N1CN(C(=O)CC[*:2])CN(C(=O)CC[*:3])C1; HGln = homoglutamine, NC(=O)CCC[C@H](N[*:1])C(=O)[*:2]; Trp(5-F) = N[C@@H](Cc1c[nH]c2ccc(F)cc12)C(=O)O; Ala(4-thiazolyl) = N[C@@H](Cc1cscn1)C(=O)O; 1Nal = N[C@@H](Cc1cccc2ccccc12)C(=O)O; 2Nal = N[C@@H](Cc1ccc2ccccc2c1)C(=O)O; Dopa = N[C@@H](Cc1ccc(O)c(O)c1)C(=O)O; Gly(cPent) = N[C@H](C(=O)O)C1CCCC1; Ser(ΨH,HPro) = O=C(O)[C@@H]1COCN1; Ala(cPr) = N[C@@H](CC1CC1)C(=O)O; Hyp = O=C(O)[C@@H]1C[C@@H](O)CN1; NMeT = CN[C@H](C(=O)O)[C@@H](C)O; hArg = N=C(N)NCCCC[C@H](N)C(=O)O; 2Thi = N[C@@H](Cc1cccs1)C(=O)O; NMeC = CN[C@@H](CS)C(=O)O; hSer = N[C@@H](CCO)C(=O)O; Aib = CC(C)(N)C(=O)O; βAla = NCCC(=O)O; Sar = CNCC(=O)O

B1: BCY433 (peptide)
peptide: DDWCAPLDDYWCGRICA
modifications: linker 4-12-16 via TATA
notes: also called 80-10-11-T01
B2: BCY8031 (peptide)
peptide: Ac-CP[2Nal][dD]CM[hArg]NWSTPIWC
modifications: linker 1-5-15 via TATA
B3: BCY8041 (peptide)
peptide: Ac-C[Aib]F[dD]CM[hArg]NWSTPIWC
modifications: linker 1-5-15 via TATA
B4: BCY7886 (peptide)
peptide: Ac-CP[Dopa][dD]CM[hArg]NWSTPIWC
modifications: linker 1-5-15 via TATA
B5: BCY8215 (peptide)
peptide: Ac-CP[1Nal][dR]CM[hArg]DWSTPIWC
modifications: linker 1-5-15 via TATA
B6: BCY8123 (peptide)
peptide: {Ac-βAla}-[Sar][Sar][Sar][Sar][Sar]CP[1Nal][dD]CM[hArg]DWSTPIWC
modifications: linker 6-10-20 via TATA
B7: BCY8211 (peptide)
peptide: Ac-CP[1Nal][dD]CL[hArg]DWSTPIWC
modifications: linker 1-5-15 via TATA
B8: BCY8127 (peptide)
peptide: Ac-CP[1Nal][dD]CM[hArg]DWSTPIWC
modifications: linker 1-5-15 via TATA
B9: BCY7903 (peptide)
peptide: Ac-CPF[dE]CM[hArg]NWSTPIWC
modifications: linker 1-5-15 via TATA
B10: BCY8037 (peptide)
peptide: Ac-CPF[dD]CM[hArg]NWSTP[Hyp]WC
modifications: linker 1-5-15 via TATA
B11: BCY7879 (peptide)
peptide: Ac-CPF[dD]CM[hArg][Ala(4-thiazolyl)]WSTPIWC
modifications: linker 1-5-15 via TATA
B12: BCY7973 (peptide)
peptide: Ac-CPF[dD][NMeC]M[hArg]NWSTPIWC
modifications: linker 1-5-15 via TATA
B13: BCY7881 (peptide)
peptide: Ac-CPF[dD]CM[hArg][124TriAz]WSTPIWC
modifications: linker 1-5-15 via TATA
B14: BCY7904 (peptide)
peptide: Ac-CPF[dQ]CM[hArg]NWSTPIWC
modifications: linker 1-5-15 via TATA
B15: BCY7998 (peptide)
peptide: Ac-QKWCAPLSDY[1Nal]CNRIC
modifications: linker 4-12-16 via TATA
B16: BCY7884 (peptide)
peptide: Ac-CPF[dD]CM[hArg]NWST[Ser(ΨH,HPro)]IWC
modifications: linker 1-5-15 via TATA
B17: BCY7979 (peptide)
peptide: Ac-CPF[dD]C[hArg]NWS[NMeT]PIWC
modifications: linker 1-5-14 via TATA
B18: BCY7664 (peptide)
peptide: Ac-CPFGCMKN[2Nal]SWPIWC
modifications: linker 1-5-15 via TATA
B19: BCY3387 (peptide)
peptide: SDNCPFGCMKDWSWPIWCA
modifications: linker 4-8-18 via TATA
B20: BCY7883 (peptide)
peptide: Ac-CPF[dD]CM[hArg]NWS[124TriAz]PIWC
modifications: linker 1-5-15 via TATA
B21: BCY7663 (peptide)
peptide: Ac-CPFGCMKN[1Nal]SWPIWC
modifications: linker 1-5-15 via TATA
B22: BCY7914 (peptide)
peptide: Ac-CPF[dD]C[HGln][hArg]NWSTPIWC
modifications: linker 1-5-15 via TATA
B23: BCY8028 (peptide)
peptide: Ac-DDDCPF[dD]CM[hArg]NWSTPIWC
modifications: linker 4-8-18 via TATA
B24: BCY8044 (peptide)
peptide: Ac-CAPLSDYWCNRIC
modifications: linker 1-9-13 via TATA
B25: BCY7902 (peptide)
peptide: Ac-CPF[dF]CM[hArg]NWSTPIWC
modifications: linker 1-5-15 via TATA
B26: BCY3386 (peptide)
peptide: DDACPFGCMETWSWPIWCA
modifications: linker 4-8-18 via TATA
B27: BCY7887 (peptide)
peptide: Ac-CPF[dD]CM[hArg]NWS[Dopa]PIWC
modifications: linker 1-5-15 via TATA
B28: BCY7915 (peptide)
peptide: Ac-CPF[dD]C[Gly(cPent)][hArg]NWSTPIWC
modifications: linker 1-5-15 via TATA
B29: BCY7997 (peptide)
peptide: Ac-QK[2Nal]CAPLSDYWCNRIC
modifications: linker 4-12-16 via TATA
B30: BCY7996 (peptide)
peptide: Ac-QK[1Nal]CAPLSDYWCNRIC
modifications: linker 4-12-16 via TATA
B31: BCY7876 (peptide)
peptide: Ac-C[Ser(ΨH,HPro)]F[dD]CM[hArg]NWSTPIWC
modifications: linker 1-5-15 via TATA
B32: BCY7820 (peptide)
peptide: Ac-CPF[dK]CM[hArg]NWSTPIWC
modifications: linker 1-5-15 via TATA
B33: BCY7907 (peptide)
peptide: Ac-CPF[dS]CM[hArg]NWSTPIWC
modifications: linker 1-5-15 via TATA
B34: BCY7793 (peptide)
peptide: CPF[dD]CM[hArg]NWSTPIWC
modifications: linker 1-5-15 via TATA
B35: BCY7538 (peptide)
peptide: Ac-CPF[dA]CMKNWSWPIWC
modifications: linker 1-5-15 via TATA
B36: BCY7819 (peptide)
peptide: Ac-CPF[dD]CMKNWSTPIWC
modifications: linker 1-5-15 via TATA
B37: BCY7667 (peptide)
peptide: Ac-CPFGCMKNWSWPI[2Nal]C
modifications: linker 1-5-15 via TATA
B38: BCY7877 (peptide)
peptide: Ac-CPF[dD]CM[hArg][2Thi]WSTPIWC
modifications: linker 1-5-15 via TATA
B39: BCY7906 (peptide)
peptide: Ac-CPF[dL]CM[hArg]NWSTPIWC
modifications: linker 1-5-15 via TATA
B40: BCY8030 (peptide)
peptide: Ac-CP[1Nal][dD]CM[hArg]NWSTPIWC
modifications: linker 1-5-15 via TATA
B41: BCY432 (peptide)
peptide: ACAPLDDYWCGRICA
modifications: linker 2-10-14 via TATA
B42: BCY7891 (peptide)
peptide: Ac-CPF[dD]CM[hArg]N[Trp(5-F)]STPIWC
modifications: linker 1-5-15 via TATA
B43: BCY7912 (peptide)
peptide: Ac-CPF[dD]CM[hArg]NWSTP[Ala(cPr)]WC
modifications: linker 1-5-15 via TATA
B44: BCY8000 (peptide)
peptide: Ac-QKWCAPLSDYWC[dD]RIC
modifications: linker 4-12-16 via TATA
B45: BCY7892 (peptide)
peptide: Ac-CPF[dD]CM[hArg]NWSTPI[Trp(5-F)]C
modifications: linker 1-5-15 via TATA
B46: BCY7908 (peptide)
peptide: Ac-CPF[dD]CM[hArg]NW[hSer]TPIWC
modifications: linker 1-5-15 via TATA

This assay deals with T1, human Nectin-4 (human, UniProt Q96NY8 32-349).
T1 construct: a Gly32-Ser349 FLAG construct is described only under the SPR assay; also called PVRL4
T1 sequence (looked up): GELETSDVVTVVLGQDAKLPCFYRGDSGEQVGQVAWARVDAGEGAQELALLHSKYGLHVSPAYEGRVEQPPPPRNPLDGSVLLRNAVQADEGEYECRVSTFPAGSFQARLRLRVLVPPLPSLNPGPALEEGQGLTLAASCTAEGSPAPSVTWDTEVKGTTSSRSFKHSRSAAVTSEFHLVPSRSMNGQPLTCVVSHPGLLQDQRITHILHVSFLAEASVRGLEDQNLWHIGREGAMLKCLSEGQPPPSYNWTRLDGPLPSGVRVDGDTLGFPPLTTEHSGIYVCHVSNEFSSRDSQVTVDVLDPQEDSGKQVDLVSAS
Put plainly: FP competition, tracer SEQ ID NO 217. How it is done:
Peptides were diluted to an appropriate concentration in assay buffer as described in the direct binding assay with a maximum of 5% DMSO, then serially diluted 1 in 2. […] Measurements were conducted as for the direct binding assay, however the gain was determined prior to the first measurement. Data analysis was in Systat Sigmaplot version 12.0 where the mP values were fit to a user defined cubic equation to generate a Ki value: […]
The molecule B1 displayed a Ki of 69.4 nM. This lies in the double-digit nanomolar range.

B2 displayed a Ki of 3.6 nM.

For B3, the Ki was found to be 39.1 nM.

As to B4, the Ki came out at 15 nM.

On to B5, for which the affinity, expressed as Ki, was 3 nM.

Molecule B6 gave a Ki of 4.5 nM.

Take B7: the Ki is 4.5 nM.

In turn, B8 displayed a Ki of 2.4 nM.

B9 registered a Ki of 41 nM.

In the case of B10, the Ki is 5.6 nM.

For the molecule B11, the inhibitory constant (Ki) was 12.5 nM.

On to B12, for which the Ki came to 4 nM. This Ki is about 3.1-fold lower than that of the molecule before.

Regarding B13, the Ki was 14.4 nM.

Molecule B14 yielded a Ki of 8 nM.

As for B15, affinity was put at a Ki of 135 nM.

B16 had a Ki of 223 nM.

B17: the Ki worked out at 191 nM.

Molecule B18 returned a Ki of 70 nM. Against the preceding molecule, the Ki is about 2.7-fold lower.

B19 yielded an inhibitory constant (Ki) of 234 nM.

Regarding B20, the Ki was found to be 189 nM.

B21 returned a Ki of 25.5 nM.

On to B22, for which the Ki was found to be 62 nM.

In turn, B23 returned a Ki of 61.9 nM. This Ki and that of the molecule before are within 1.5-fold of each other.

B24 gave a Ki of 170 nM.

As for B25, affinity was put at a Ki of 4 nM.

For B26, the Ki was 80.2 nM.

For B27, the Ki amounted to 21.4 nM.

On to B28, for which affinity was put at a Ki of 20 nM.

Molecule B29 displayed a Ki of 22 nM.

Consider B30, for which the affinity, expressed as Ki, was 21 nM.

In the case of B31, the Ki came to 59.2 nM.

B32 gave a Ki of 10 nM.

Molecule B33 displayed a Ki of 10 nM.

On to B34, for which the Ki is 42 nM. This Ki is about 4.2-fold higher than that of the molecule before.

Take B35: affinity was put at a Ki of 8.5 nM.

For B36, affinity was put at a Ki of 12 nM.

Take B37: the affinity corresponds to a Ki of 27.3 nM. This Ki lies about 2.3-fold higher than the previous one.

On to B38, for which the Ki came out at 9.5 nM.

With B39, the Ki was 6 nM.

B40 gave a Ki of 2.5 nM.

With B41, the Ki worked out at 1100 nM. Against the preceding molecule, the Ki is about 440-fold higher.

B42 showed an inhibition constant (Ki) of 5 nM.

Consider B43, for which the inhibitory constant (Ki) worked out at 9 nM.

In turn, B44 showed a Ki of 60 nM.

The molecule B45 gave a Ki of 9.5 nM. Compared with the last molecule, the Ki is about 6.3-fold lower.

In turn, B46 had an inhibition constant (Ki) of 20 nM.
